We go through three molecules from patent US20120058906A1 (published 2012).

Experiment [1] deals with T1, rHuman CD44/Fc Chimera, CF (R&D Systems Cat#3660-CD) (human, UniProt P16070 21-220).
T1 construct: Bought Fc chimera; Fc part of the bought chimera not given
The experiment is described as follows: ECL (MSD Multi-Spot) binding, antigen spotted on plate; Fab 0.5 nM.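 Note: blank spot per well as comparator with Hit at signal to blank ratio of 4 or more.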

Experiment [2] concerns the target T2, rHuman IGF-1 sR, CF (R&D Systems Cat#391-GR) (human, UniProt P08069 31-932).
T2 construct: Bought soluble receptor; also called insulin-like growth factor-1 soluble receptor; IGF-R1
The description is as above.

Experiment [3] concerns the target T3, rHuman P-Cadherin/Fc Chimera, CF (R&D Systems Cat#861-PC) (human, UniProt P22223 108-654).
T3 construct: Bought Fc chimera; Fc part of the bought chimera not given
Described as above.

For experiment [4], the target named is T4, rHuman Erythropoietin R/Fc Chimera, CF (R&D Systems Cat#963-ER) (human, UniProt P19235 25-250).
T4 construct: Bought Fc chimera; also called EPO R/Fc; erythropoietin receptor; Fc part of the bought chimera not given
T4 sequence: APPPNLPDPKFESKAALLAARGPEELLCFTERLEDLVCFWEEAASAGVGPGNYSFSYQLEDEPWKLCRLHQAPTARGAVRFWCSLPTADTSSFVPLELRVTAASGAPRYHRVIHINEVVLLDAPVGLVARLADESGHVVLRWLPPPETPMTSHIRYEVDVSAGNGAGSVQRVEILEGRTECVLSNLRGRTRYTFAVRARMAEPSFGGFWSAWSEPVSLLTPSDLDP
The experiment is described as above.

Experiment [5] concerns the target T5, Recombinant Human DLL4 (R&D Systems Cat#1506-D4/CF) (human, UniProt Q9NR61 27-524).
T5 construct: Bought recombinant protein; also called delta-like protein 4
Described as above.

Experiment [6] deals with T6, rHuman ErbB2/Fc Chimera, CF (R&D Systems Cat#1129-ER) (human, UniProt P04626 23-652).
T6 construct: Bought Fc chimera; also called human epidermal growth factor 2 receptor; HER2/neu; Fc part of the bought chimera not given
The experiment is described as above.

The target of experiment [7] is T7, rHuman EGF R/Fc Chimera, CF (R&D Systems Cat#344-ER) (human, UniProt P00533 25-645).
T7 construct: Bought Fc chimera; also called epidermal growth factor receptor; Fc part of the bought chimera not given
The description is as above.

Experiment [8] concerns the target T8, rHuman HGF R/c-MET/Fc Chimera, CF (R&D Systems Cat#358-MT/CF) (human, UniProt P08581 25-932).
T8 construct: Bought Fc chimera; also called HGF R/Fc; hepatocyte growth factor receptor; Fc part of the bought chimera not given
Described as above.

Experiment [9] concerns the target T9, rHuman Notch-1/Fc Chimera, CF (R&D Systems Cat#3647-TK) (human, UniProt P46531 19-526).
T9 construct: Bought Fc chimera; Fc part of the bought chimera not given
Described as above.

Experiment [10] deals with T10, rHuman Erythropoietin R/Fc Chimera, CF (R&D Systems Cat#963-ER) (human, UniProt P19235 25-250).
T10 construct: Bought reagent; also called EPO R/Fc; Epo R; Fc part of the bought chimera not given
T10 sequence: T4 sequence
The experiment is described as follows: ECL (MSD multi-spot), antigen spotted on plate; Fab 176.3 nM; blank spot 346.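 Note: blank spot per well as comparator with Hit at signal to blank ratio of 4 or more.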

In experiment [11] the target is T11, Recombinant Human DLL4 (R&D Systems Cat#1506-D4/CF) (human, UniProt Q9NR61 27-524).
T11 construct: Bought reagent; also called delta-like protein 4
Described as above.

The target of experiment [12] is T12, rHuman ErbB2/Fc Chimera, CF (R&D Systems Cat#1129-ER) (human, UniProt P04626 23-652).
T12 construct: Bought reagent; also called HER2/neu; human epidermal growth factor 2 receptor; Fc part of the bought chimera not given
Described as above.

The target of experiment [13] is T13, rHuman EGF R/Fc Chimera, CF (R&D Systems Cat#344-ER) (human, UniProt P00533 25-645).
T13 construct: Bought reagent; also called epidermal growth factor receptor; Fc part of the bought chimera not given
The experiment is described as above.

In experiment [14] the target is T14, rHuman HGF R/c-MET/Fc Chimera, CF (R&D Systems Cat#358-MT/CF) (human, UniProt P08581 25-932).
T14 construct: Bought reagent; also called HGF R/Fc; hepatocyte growth factor receptor; Fc part of the bought chimera not given
The description is as above.

For experiment [15], the target named is T15, rHuman CD44/Fc Chimera, CF (R&D Systems Cat#3660-CD) (human, UniProt P16070 21-220).
T15 construct: Bought reagent; Fc part of the bought chimera not given
Described as above.

In experiment [16] the target is T16, rHuman IGF-1 sR (IGF-1 sR), CF (R&D Systems Cat#391-GR) (human, UniProt P08069 31-932).
T16 construct: Bought soluble receptor; also called insulin-like growth factor-1 soluble receptor; IGF-R1
Described as above.

Experiment [17] deals with T17, rHuman P-Cadherin/Fc Chimera, CF (R&D Systems Cat#861-PC) (human, UniProt P22223 108-654).
T17 construct: Bought reagent; also called CDH3; Fc part of the bought chimera not given
Described as above.

For experiment [18], the target named is T18, rHuman EGF R/Fc Chimera, CF (R&D Systems Cat#344-ER) (human, UniProt P00533 25-645).
T18 construct: Purchased Fc chimera; not shown: Fc portion of the purchased chimera
Put plainly: MSD ECL multi-spot plate, antigen immobilized; Fab 200 nM; blank spot 529.

B1: Fab VH1-46_IGHD6-6*01_IGHJ1*01_S102A_S103P_S104F_H111Y & L6_IGKJ1*01 (Fab, V domains shown)
VH: QVQLVQSGAEVKKPGASVKVSCKASGYTFTSYYMHWVRQAPGQGLEWMGIINPSGGSTSYAQKFQGRVTMTRDTSTSTVYMELSSLRSEDTAVYYCAREEYAPFSAEYFQYWGQGTLVTVSS
VL: not shown
notes: Fab made in E. coli; The heavy chain also carries the CH1 with Flag and His tags of Plasmid A, and the light chain the kappa constant region of Plasmid C
In the case of B1, the ECL signal worked out at 279 in experiment [1]; 164 in experiment [2]; 215 in experiment [3]; 359 in [4]; 2970 in [5]; 331 in experiment [6]. Besides, the ECL signal in experiment [7] is 273; in experiment [8] it was 319; in experiment [9], 263.

B2: Fab VH1-46_IGHD3-10*01_IGHJ4*01 & B3_IGKJ1*01 (Fab, V domains shown)
VH: QVQLVQSGAEVKKPGASVKVSCKASGYTFTSYYMHWVRQAPGQGLEWMGIINPSGGSTSYAQKFQGRVTMTRDTSTSTVYMELSSLRSEDTAVYYCAREYYYGSGSYYNDYFDYWGQGTLVTVSS
VL: not shown
notes: also called IGHV1-46*01
B2: the ECL signal in experiment [10] turned out to be 3520; in [11], 460; in experiment [12], 448; in [13], 428; in [14], 418; in [15], 376. Moreover, the values for the ECL signal in [16] and in experiment [17] were 393 and 532, respectively.

B3: Fab VH5-51_IGHD5-18*01>3_IGHJ4*01_G100R & V3-4_IGLJ1*01 (Fab, V domains shown)
VH: EVQLVQSGAEVKKPGESLKISCKGSGYSFTSYWIGWVRQMPGKGLEWMGIIYPGDSDTRYSPSFQGQVTISADKSISTAYLQWSSLKASDTAMYYCARRRYSYGYDYFDYWGQGTLVTVSS
VL: QTVVTQEPSFSVSPGGTVTLTCGLSSGSVSTSYYPSWYQQTPGQAPRTLIYSTNTRSSGVPDRFSGSILGNKAALTITGAQADDESDYYCVLYMGSGISYVFGTGTKVTVL
notes: It was expressed as a Fab: CH1 with tags from Plasmid A and lambda CL from Plasmid E; also called Fab No. 23
With B3, the ECL signal in experiment [18] amounted to 1020 ECL signal.
